Measurements published in patent US12503518B2, “Heparanase-neutralizing A54 monoclonal antibody” (TECHNION RESEARCH & DEVELOPMENT FOUNDATION LIMITED, priority 2020, dated 2025).

What was measured:
[1] = system: MPC-11 mouse myeloma cells; assay: MPC-11 myeloma tumor growth in syngeneic Balb/c mice; assay type: in vivo
Protocol: MPC-11 myeloma. Mouse MPC-11 myeloma cells are detached with trypsin/EDTA, washed with PBS, brought to a concentration of 5×10^5 cells/0.2 ml and inoculated subcutaneously at the right flank of 6-8-weeks-old Balb/c mice. Three days after cell inoculation, mice are randomly assigned to 2 cohorts (6 mice each) receiving (a) vehicle (PBS); and (b) A54 mAb (500 μg/mouse, 3 times/week. Xenograft size is determined on day 7, 10 and 14 by externally measuring tumors in 2 dimensions using a caliper. At the end of the experiment, mice are sacrificed and tumor xenografts are removed and weighed.
Briefly, Balb/c mice were inoculated (s.c.) with MPC-11 mouse myeloma cells (0.5×10^6). Treatment with mAb A54 (250 or 500 μg/mouse every other day) was initiated two days after cell inoculation. Control cells were administrated with PBS. Xenograft size was determined twice a week by externally measuring the tumors in two dimensions using a caliper, and tumor volume was calculated (FIG. 6A). At the end of the experiment (Day 14) xenografts were removed, weighed (FIG. 6B), fixed in formalin and photographed (FIG. 6C). […] The above results imply that the development of primary tumors can be restrained by the anti-heparanase mAb A54.

[2] = system: Luc-U87 human glioma cells; assay: U87 glioma tumor growth in NOD/SCID mice, IVIS imaging; assay type: in vivo; settings: s.c. tumors, 500 μg/mouse, 3 times/week; vs PBS; P=0.04
Protocol: U87 glioma. Cells from exponential cultures of Luciferase labeled U87 glioma cells were detached with trypsin/EDTA, washed with PBS and brought to a concentration of 5×10^7 cells/ml. Cell suspension (5×10^6/0.1 ml) was inoculated subcutaneously at the right flank of 5-weeks old female SCID/Beige mice (n=7). Three days after cell inoculation, mice are randomly assigned to 2 cohorts (5-10 mice each) receiving (a) vehicle (PBS); and (b) A54 mAb (500 μg/mouse, 3 times/week). Tumor development is inspected (once a week) by IVIS imaging following administration of luciferin (see below) as described (Barash et al. FASEB J 2010; 24:1239-48, Barash et al., J Natl Cancer Inst. 110:1102-1114, 2018). […]
(§1) IVIS imaging. […] Imaging is performed in real time, is non-invasive and provides quantitative data. […] Light emitted from the bioluminescent cells is detected by the IVIS camera system with images quantified for tumor burden using a log-scale color range set at 5×10^4 to 1×10^7 and measurement of total photon counts per second (PPS) using Living Image software (Xenogen).
Similarly, Luc-U87 human glioma cells (5×10^6/0.1 ml) were inoculated subcutaneously (s.c.) at the right flank of 5-weeks old female NOD/SCID mice (n=5). […] Tumor growth was evaluated by IVIS imaging (FIGS. 5D and 5E) and quantification of luciferase signals is shown graphically (FIG. 5F).

[3] = system: LPS-induced sepsis; assay: LPS-induced sepsis survival; assay type: in vivo, C57BL/6 mice; settings: 500 μg/mouse 30 min before LPS (15 mg/kg, i.p.); monitored 8 days
Protocol: In subsequent studies, the effect of mAb A54 on LPS-induced sepsis, was investigated. C57BL/6 mice (n=8) were treated with A54 mAb (500 μg/mouse) or Roneparstat (SST) (1.2 mg/mouse) or PBS as control, 30 min before LPS injection (15 mg/kg, i.p.). SST was given once again (1.2 mg/mouse) 16 hours after LPS administration. Survival of mice was monitored every 12 h for 8 days (FIG. 10).

[4] = system: Luc-CAG human myeloma cells; assay: CAG myeloma tumor growth in NOD/SCID mice, IVIS imaging; assay type: in vivo; settings: 500 μg/mouse, 3 times/week from day 3; evaluated 3 weeks later; vs PBS; P=0.02
Protocol: CAG myeloma. Luciferase-labeled CAG human myeloma cells (5×10^6) are injected into the tail vein of NOD/SCID mice. Three days after cell inoculation, mice are randomly assigned to 2 cohorts (5-10 mice each) receiving (a) vehicle (PBS); and (b) A54 mAb (500 μg/mouse, 3 times/week). Tumor development is inspected (once a week) by IVIS imaging following administration of luciferin (see below). At termination, mice are sacrificed the backbones are excised, fixed in formalin and following de-calcification with 10% EDTA solution are embedded in paraffin and subjected to histological and immunohistochemical analyses.
as §1
The ability of mAb A54 to attenuate myeloma tumor development over time was examined. […] Tumor growth was evaluated 3 weeks later by IVIS imaging (FIGS. 5A and 5B). Quantification of luciferase signals is also shown graphically (FIG. 5C). […]

B1: mAb A54: heparanase-neutralizing murine monoclonal antibody, IgG1-Kappa; VH SEQ ID NO: 7, VL SEQ ID NO: 8; binds HBD-II of heparanase (antibody, listed as Mus musculus, V domains shown)
VH: QVQLQQSGAELAKPGASVRMSCKASGYTFTNYWMHWVKQRPGQGLEWIGYINPTTGYTEYNQKFKDKATLTADKSSSTAYMQLSSLTSEDSAVYYCARGGAGYDYDEDYAMDYWGQGTSVTVSS
VL: DIVLTQSPASLAVSLGQRATISCRASESVEYFGTSYMNWYQQKPGQPPKLLIYLASILESGIPARFSGSGSGTDFTLNIHPVEEEDAATYYCQQSNEDPYTFGGGTKLEIK
For B1, the “attenuation of myeloma tumor growth” value ([1]; 250 or 500 μg/mouse every other day from day 2, day 14, vs PBS) was 4 fold, the “dose dependence of tumor growth attenuation” value ([1]; 250 vs 500 μg/mouse every other day) was “higher dose of antibody was more effective” and the “glioma tumor growth rate (IVIS luciferase signal)” value [2] was “marked inhibition of the glioma tumor growth rate”. The “survival after LPS injection” value [3] was “effectively protects mice from LPS-induced sepsis” and the “myeloma growth rate (IVIS luciferase signal)” value [4] was “marked reduction in the myeloma growth rate”.
